Measurements from US20220119467A1.
No end group written: not given here.

B1: Keya-BFP (designed binder, not shown: large carriers)
chain: EARKAIARVKRESKRIVEDAERLIREAAAASEKISREAERLIREAAAASEKISRE
modifications: not fully specified (C-terminus); also: linker to BFP not given here
B2: keya-BFP-NLS (designed binder, not shown: large carriers)
chain: EARKAIARVKRESKRIVEDAERLIREAAAASEKISREAERLIREAAAASEKISRE
modifications: not fully specified (C-terminus); also: BFP and NLS sequences not given here

Key:
Assay in all cases: cell-based or functional assay
[1] = target: T1, dCas9-VP64-RFP-degronSwitcha
T1 sequence: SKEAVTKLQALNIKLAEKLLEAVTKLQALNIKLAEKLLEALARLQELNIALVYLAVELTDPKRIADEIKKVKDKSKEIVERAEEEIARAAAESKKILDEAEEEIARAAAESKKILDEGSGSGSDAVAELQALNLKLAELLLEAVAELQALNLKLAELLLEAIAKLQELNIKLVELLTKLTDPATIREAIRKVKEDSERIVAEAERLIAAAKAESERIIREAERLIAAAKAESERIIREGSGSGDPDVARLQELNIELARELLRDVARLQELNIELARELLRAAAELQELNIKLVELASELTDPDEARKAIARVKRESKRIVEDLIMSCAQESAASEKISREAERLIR

[2] = target: T2, YFP-degronSwitcha
T2 sequence: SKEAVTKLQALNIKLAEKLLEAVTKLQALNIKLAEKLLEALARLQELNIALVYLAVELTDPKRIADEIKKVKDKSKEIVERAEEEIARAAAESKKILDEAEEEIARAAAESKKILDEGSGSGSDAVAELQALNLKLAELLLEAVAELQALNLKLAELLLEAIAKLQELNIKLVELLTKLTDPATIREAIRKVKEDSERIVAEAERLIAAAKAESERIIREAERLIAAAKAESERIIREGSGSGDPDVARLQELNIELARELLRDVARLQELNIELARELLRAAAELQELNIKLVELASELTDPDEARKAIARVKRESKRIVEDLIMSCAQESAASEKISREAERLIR

[3] = target: SynTF-RFP-degronSwitcha

Binder | decrease in RFP fluorescence at 31.25 nM E2, flow cytometry, S. cerevisiae [1] [%] | decrease in pTet7x-YFP reporter fluorescence at 31.25 nM E2, flow cytometry, S. cerevisiae [1] [%] | YFP fluorescence at steady state, flow cytometry, S. cerevisiae [2] [%] | decrease in RFP fluorescence at 31.25 nM E2, flow cytometry, S. cerevisiae [3] [%] | decrease in pSynTF-YFP reporter fluorescence at 31.25 nM E2, flow cytometry, S. cerevisiae [3] [%]
B1 | 78 | 41 | < 73 |  | 
B2 |  |  |  | 61 | 82
